# Several values for one entry are separate records, joined by “and”; a condition that tells them apart may be missing. Equal entries are not always repeated.
# Target: YFP^C-Rho5 or YFP^C-Rho5^G12V
# Experiment: split reporter (BiFC, NanoBiT); BiFC of candidate VN fusions with YFP^C fusions of WT or mutant Rho5 (G12V, K16N) in living yeast cells; z-stack fluorescence microscopy at 22-25°; for Atg21-VN signals quantified above a threshold set from a strain with untagged Rho5
substance,measurement,value
"Atg21-VN (Atg21 tagged with VN, the N-terminal fragment of Venus) (from UniProt Q02887 1-496) (natural protein)",percent of cells with YFP signal above threshold,40 % of cells and 62 % of cells

# Source: publication PMC6404601
